{"source": "paper PMC3149608", "about": "“A Novel Acyl-CoA Beta-Transaminase Characterized from a Metagenome” (PLoS ONE, 2011)", "key": {"[1]": {"molecular_target": "T1, AtoA/AtoD complex (butyrate-acetoacetate CoA transferase) (Cloacimonas acidaminivorans (SeqCode), UniProt B0VIH1+B0VIH2)", "T1 construct": "each subunit in pEXP-5-NT/TOPO, E. coli, mixed equimolar; by primers AtoA (M)ALDKRAM...ERVNTF, AtoD (M)VQIISA...VLAKEN", "T1 sequence (B0VIH1 1-218)": "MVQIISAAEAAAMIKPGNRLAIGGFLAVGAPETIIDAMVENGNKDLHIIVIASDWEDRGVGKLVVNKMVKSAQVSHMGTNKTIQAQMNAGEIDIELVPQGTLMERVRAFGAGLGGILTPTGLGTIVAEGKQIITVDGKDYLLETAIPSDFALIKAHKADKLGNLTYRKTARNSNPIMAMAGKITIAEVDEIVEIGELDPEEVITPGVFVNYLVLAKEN", "T1 sequence (B0VIH2 1-217)": "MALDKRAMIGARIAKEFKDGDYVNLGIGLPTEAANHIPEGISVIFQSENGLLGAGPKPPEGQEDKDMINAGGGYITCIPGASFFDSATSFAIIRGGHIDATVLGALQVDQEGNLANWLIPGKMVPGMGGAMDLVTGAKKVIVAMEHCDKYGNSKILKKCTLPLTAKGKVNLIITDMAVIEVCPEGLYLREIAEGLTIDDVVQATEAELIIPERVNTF", "assay": "CoA transferase assay, acetoacetyl-CoA formation at […] nm", "assay_type": "biochemical", "settings": "4 mM MgCl2, 50 mM Tris/HCl pH 8.1"}, "[2]": {"molecular_target": "T2, Kat (HemL-like), 3-aminobutyryl-CoA aminotransferase (Cloacimonas acidaminivorans (SeqCode), UniProt B0VH76)", "T2 construct": "full-length CDS in pEXP-5-NT/TOPO, E. coli; by primers starts (M)AEKLKLA, ends EVKKML", "T2 sequence (B0VH76 1-414)": "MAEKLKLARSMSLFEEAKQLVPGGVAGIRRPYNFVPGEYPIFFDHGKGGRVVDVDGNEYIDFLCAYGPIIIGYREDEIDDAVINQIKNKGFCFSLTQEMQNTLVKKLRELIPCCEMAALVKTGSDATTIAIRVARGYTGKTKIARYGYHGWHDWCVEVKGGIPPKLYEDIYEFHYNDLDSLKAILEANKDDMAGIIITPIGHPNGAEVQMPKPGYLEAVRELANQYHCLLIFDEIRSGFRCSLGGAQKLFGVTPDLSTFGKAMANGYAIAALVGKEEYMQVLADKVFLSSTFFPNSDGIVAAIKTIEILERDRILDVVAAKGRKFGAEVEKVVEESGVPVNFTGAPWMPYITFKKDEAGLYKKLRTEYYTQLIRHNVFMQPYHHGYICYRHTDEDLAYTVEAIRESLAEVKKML", "assay": "spectrophotometric, acetoacetyl-CoA formation at […] nm", "assay_type": "biochemical", "settings": "25 µM (3S)-3-aminobutyryl-CoA; 50 mM Tris/HCl pH 8.1, 5 mM MgCl2"}, "purified protein [3]": {"substrate": "O=C(O)CCC(=O)C(=O)O", "assay": "purified protein", "assay_type": "biochemical, Cloacimonas acidaminivorans (SeqCode)", "settings": "25 µM (3S)-3-aminobutyryl-CoA, 50 mM Tris/HCl pH 8.1, 5 mM MgCl2"}, "purified protein [4]": {"substrate": "C[C@H](N)CC(=O)SCCNC(=O)CCNC(=O)[C@H](O)C(C)(C)COP(=O)(O)OP(=O)(O)OC[C@H]1O[C@@H](n2cnc3c(N)ncnc32)[C@H](O)[C@@H]1OP(=O)(O)O", "assay": "purified protein", "assay_type": "biochemical, Cloacimonas acidaminivorans (SeqCode)", "settings": "50 mM α-ketoglutarate, 50 mM Tris/HCl pH 8.1, 5 mM MgCl2"}}}
{"molecule": "CC(=O)CC(=O)O", "note": "[acetoacetate]", "values": [{"measurement": "CoA transferase assay, acetoacetyl-CoA formation at 310 nm", "setting": "[1]; acetyl-CoA as CoA donor", "value": "formation in vitro of acetoacetyl-CoA and acetate from acetoacetate and acetyl-CoA"}]}
{"molecule": "CC(=O)C(=O)O", "note": "[pyruvate]", "values": [{"measurement": "K m (M)", "setting": "[2]", "value": "20.1±1.3 10^−3 M"}]}
{"molecule": "CC(=O)SCCNC(=O)CCNC(=O)[C@H](O)C(C)(C)COP(=O)(O)OP(=O)(O)OC[C@H]1O[C@@H](n2cnc3c(N)ncnc32)[C@H](O)[C@@H]1OP(=O)(O)O", "note": "[acetyl-CoA]", "values": [{"measurement": "CoA transferase assay, acetoacetyl-CoA formation at 310 nm", "setting": "[1]; 10 mM acetoacetate", "value": "formation in vitro of acetoacetyl-CoA and acetate from acetoacetate and acetyl-CoA"}]}
{"molecule": "Kat (HemL-like), 3-aminobutyryl-CoA aminotransferase (Candidatus Cloacimonas acidaminivorans str. Evry) (protein, full-length CDS in pEXP-5-NT/TOPO, E. coli; by primers starts (M)AEKLKLA, ends EVKKML) MAEKLKLARSMSLFEEAKQLVPGGVAGIRRPYNFVPGEYPIFFDHGKGGRVVDVDGNEYIDFLCAYGPIIIGYREDEIDDAVINQIKNKGFCFSLTQEMQNTLVKKLRELIPCCEMAALVKTGSDATTIAIRVARGYTGKTKIARYGYHGWHDWCVEVKGGIPPKLYEDIYEFHYNDLDSLKAILEANKDDMAGIIITPIGHPNGAEVQMPKPGYLEAVRELANQYHCLLIFDEIRSGFRCSLGGAQKLFGVTPDLSTFGKAMANGYAIAALVGKEEYMQVLADKVFLSSTFFPNSDGIVAAIKTIEILERDRILDVVAAKGRKFGAEVEKVVEESGVPVNFTGAPWMPYITFKKDEAGLYKKLRTEYYTQLIRHNVFMQPYHHGYICYRHTDEDLAYTVEAIRESLAEVKKML", "values": [{"measurement": "kcat", "setting": "purified protein [3]", "value": "1.8 ± 0.1", "unit": "s⁻¹"}, {"measurement": "kcat/Km", "setting": "purified protein [3]", "value": 620, "unit": "M⁻¹ s⁻¹"}, {"measurement": "kcat", "setting": "purified protein [4]", "value": "1.8 ± 0.2", "unit": "s⁻¹"}, {"measurement": "kcat/Km", "setting": "purified protein [4]", "value": 420000, "unit": "M⁻¹ s⁻¹"}]}
